Measured values published in US11994512B2, “Single-cell genomic methods to generate ex vivo cell systems that recapitulate in vivo biology with improved fidelity” (Massachusetts Institute of Technology, priority 2018, dated 2024).

B1: Q8CAB8 (protein, UniProt Q8CAB8 1-329, looked up)
chain: MELHILEHRLQVASVAKESIPLFTYGLIKLAFLSSKTRCKFFSLTETPEDYTIIVDEEGFLELPSSEHLSVADATWLALNVVSGGGSFSSSQPIGVTKIAKSVIAPLADQNISVFMLSTYQTDFILVRERDLPFVTHTLSSEFTILRVVNGETVAAENLSFTNGFVKPKMVQRPVIHPLSSPSNRFCVTSLDPDTLPAVATLLMDVMFYSNGVKDPMAASDDCGHIRFFSFSLIEGYISLVMDVQTQQRFPSHLLFTSASGELWKMVRIGGQPLGFDECGIVAQISEPLAAADIPAYYISTFKFDHALVPEENISGVIHALKVSQAGKH
modifications: full-length
B2: Q8CGK7 (protein, UniProt Q8CGK7 1-381, looked up)
chain: MGCLGNSSKTAEDQGVDEKERREANKKIEKQLQKERLAYKATHRLLLLGAGESGKSTIVKQMRILHVNGFNPEEKKQKILDIRKNVKDAIVTIVSAMSTIIPPVPLANPENQFRSDYIKSIAPITDFEYSQEFFDHVKKLWDDEGVKACFERSNEYQLIDCAQYFLERIDSVSLVDYTPTDQDLLRCRVLTSGIFETRFQVDKVNFHMFDVGGQRDERRKWIQCFNDVTAIIYVAACSSYNMVIREDNNTNRLRESLDLFESIWNNRWLRTISIILFLNKQDMLAEKVLAGKSKIEDYFPEYANYTVPEDATPDAGEDPKVTRAKFFIRDLFLRISTATGDGKHYCYPHFTCAVDTENIRRVFNDCRDIIQRMHLKQYELL
modifications: full-length
B3: Q8CFC7 (protein, UniProt Q8CFC7 1-668, looked up)
chain: MWHEARKHERKLRGMMVDYKKRAERRREYYEKIKKDPAQFLQVHGRACKVHLDSAVALAAESPVNMMPWQGDTNNMIDRFDVRAHLDHIPDYTPPLLTTISPEQESDERKCNYERYRGLVQNDFAGISEEQCLYQIYIDELYGGLQRPSEDEKKKLAEKKASIGYTYEDSTVAEVEKVAEKPEEEESPAEEESNSDEDEVIPDIDVEVDVDELNQEQVADLNKQATTYGMADGDFVRMLRKDKEEAEAIKHAKALEEEKAMYSGRRSRRQRREFREKRLRGRKISPPSYARRDSPTYDPYKRSPSESSSESRSRSRSPSPGREEKITFITSFGGSDEEAAAAAAAAAASGAAPGKPPAPPQTGGPAPGRNASTRRRSSSSSASRTSSSRSSSRSSSRSRRGYYRSGRHARSRSRSWSRSRSRSRRYSRSRSRGRRHSDGGSRDGHRYSRSPARRGGYVPRRRSRSRSRSGDRYKRGARGPRHHSSSHSRSSWSLSPSRSRSVTRSGSRSQSRSRSRSQSHSQSQSHSPSPPREKLTRPAASPAVGEKLKKTEPAAGKETGAAKPKLTPQERLKLRMQKALNRQFKADKKAAQEKMIQQEHERQEREDELRAMARKIRMKERERREKEREEWERQYSRQSRSPSPRYSREYSSSRRRSRSRSRSPHYRH
modifications: full-length

Test system: intracellular proteome of ENR+CD and ENR organoids
Test: LC-MS/MS TMT proteomics of ENR+CD versus ENR organoids
Assay type: cell-based, C57BL/6 mice
Settings: for Average logFC: ENR+CD versus ENR organoids, sample pairs in aggregate (n=4, 2 technical replicates from two biological donors); for M1-1 Log2 Median Normalized / M1-2 Log2 Median Normalized / M2-1 Log2 Median Normalized / M2-2 Log2 Median Normalized: protein abundance ratio ENR+CD versus ENR organoids, LC-MS/MS TMT proteomics; for M1-1 Log2 Median Normalized: sample pair M1-1; for M1-2 Log2 Median Normalized: sample pair M1-2; for M2-1 Log2 Median Normalized: sample pair M2-1; for M2-2 Log2 Median Normalized: sample pair M2-2; for change: up = enriched in ENR+CD, down = enriched in ENR, FDR<0.05 and log fold change cut-off

Molecule	Average logFC	M1-1 Log2 Median Normalized	M1-2 Log2 Median Normalized	M2-1 Log2 Median Normalized	M2-2 Log2 Median Normalized	change
B1	1.494	1.555	0.678	1.5715	1.494	up
B2	−1.357	−1.028	−1.1	−1.4805	−1.82	down
B3	−1.139	−1.219	−0.633	−0.8625	−1.84	down
